We go through three molecules from patent US20070065429A1, “Nogo-receptor antagonists for the treatment of conditions involving amyloid plaques” (Biogen Idec MA Inc., priority 2003, published 2007).

The test system of experiment [1] is APPsw/PSEN-1(DeltaE9) double transgenic mice. Nature of the experiment: Intracerebroventricular infusion into APPsw/PSEN-1(DeltaE9) double transgenic mice. The format is in vivo. The following applies: 2.5 mg per mouse over 56 days. The source says: To examine the role of the NgR/APP/AB interactions in vivo, sNgR310-Fc (a NgR antagonist; see International Patent Application PCT/US03/25004) was infused into APPsw/PSEN-1(DeltaE9) double transgenic mice (from Jackson Laboratories). The sNgR310-Fc protein contains the entire LRR ligand-binding of the NgR fused to the Fc portion of IgG. To administer sNgR310-Fc protein, 5-month-old mice were anesthetized with isoflurane/oxygen and a burr hole was drilled in the skull. A cannula (ALZET brain infusion kit II, Alza Scientific Products, Palo Alto, Calif.) was introduced into the right lateral ventricle at stereotaxic coordinates 0.6 mm posterior and 1.2 mm lateral to bregma and 4.0 mm deep to the pial surface. The cannula was held in place with cyanoacrylate and the catheter was attached to a subcutaneous osmotic minipump (Alzet 2ML4). The pump delivered 2.5 μl/hr for 28 days of a 1.2 mg/ml solution of sNgR310-Fc or rat IgG in PBS (control mice received rat IgG since both the NgR and the Pc moiety were of rat origin). Pumps were replaced after 28 days and connected to the same cannula. The total dose of protein infused was 2.5 mg per mouse over 56 days. At the end of this period, mice were sacrificed and brain AB levels were measured using an ELISA kit from Biosource International according to the manufacturer's instructions. Aβ deposition into amyloid plaques was assessed by anti-Aβ immunohistochemistry as follows. Aβ plaques in sagittal sections of 4% paraformaldehyde fixed brain were detected immunohistologically with anti-Aβ(1-17) 6E10 antibody after 0.1 M formic acid treatment for antigen recovery. Plaque area was quantitated using NIH Image as a percentage of cerebral cortical area for 3 sections from each animal.

For another experiment, the system named is Aβ peptides. Description: Aβ peptide binding to wells coated with purified sNgR-Fc. The procedure:
We analyzed whether Aβ (1-28) binding competed for NgR binding with other known ligands for NgR by allowing 250 nM soluble AP-Aβ(1-28) or AP-Nogo (1-33) to bind to wells coated with purified sNgR310-Fc in the presence of various concentrations of competing free Aβ. […] We observed that the Aβ peptides bind to both sNgR310-Fc and sNgR344-Fc. […] However, Aβ(1-28) displaced Aβ-AP binding but not AP-Nogo-66 (1-33) or AP-OMgp binding in competition assays. The Aβ peptide may begin to displace AP-MAG very slightly at high concentrations in our experiments. Thus, the Aβ binding site on NgR appears largely distinct from that for the myelin ligands NogoA, OMgp and MAG. Consistent with this, the presence of Aβ had little effect on myelin or Nogo-66 inhibition of neurite outgrowth.

The target in the next experiment is T1, NgR (Homo sapiens, UniProt Q9BZR6).
T1 construct: expressed in transfected cells; host or cells: COS cells
T1 sequence (Q9BZR6 27-473): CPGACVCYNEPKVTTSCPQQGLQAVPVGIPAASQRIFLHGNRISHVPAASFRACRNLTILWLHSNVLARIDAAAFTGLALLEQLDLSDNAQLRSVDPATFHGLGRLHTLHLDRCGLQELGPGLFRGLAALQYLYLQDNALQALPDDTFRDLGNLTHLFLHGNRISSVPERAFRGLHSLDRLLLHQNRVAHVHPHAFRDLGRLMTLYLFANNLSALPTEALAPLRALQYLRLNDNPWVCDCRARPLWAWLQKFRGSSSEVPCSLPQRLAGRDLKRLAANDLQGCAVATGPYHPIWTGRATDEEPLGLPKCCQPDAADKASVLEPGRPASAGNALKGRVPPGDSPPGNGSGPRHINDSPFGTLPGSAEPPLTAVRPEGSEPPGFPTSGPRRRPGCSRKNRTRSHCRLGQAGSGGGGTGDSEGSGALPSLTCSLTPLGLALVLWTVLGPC
Nature of the experiment: AP-Aβ(1-28) fusion protein binding to NgR-expressing COS cells. The settings on record: not to vector-transfected COS cells. From the text:
We then investigated whether the Aβ region of APP is involved in its interaction with NgR—including whether the fibrillogenic Aβ42-3 peptide binds NgR. We created two fusion protein constructs containing alkaline phosphatase (AP) and the hydrophilic region of Aβ (amino acids 1-28) by fusing the coding sequence in frame with the signal sequence-6×His-placental alkaline phosphatase (AP) sequence of the vector pAP-6 (Nakamura et al., Neuron 2: 1093-1100, 1988). The AP-Aβ and Aβ-AP proteins both bound to NgR-expressing COS cells but not to vector-transfected COS cells. This binding was saturable with an apparent Kd of 60 nM. The interaction also was detected using purified Biotin-Aβ(1-40) in an ELISA-type assay with immobilized NgR.

B1: sNgR310-Fc: contains the entire LRR ligand-binding of the NgR fused to the Fc portion of IgG; NgR and Fc of rat origin (protein)
chain: CPGACVCYNEPKVTTSRPQQGLQAVPAGIPASSQRIFLHGNRISYVPAASFQSCRNLTILWLHSNALAGIDAAAFTGLTLLEQLDLSDNAQLRVVDPTTFRGLGHLHTLHLDRCGLQELGPGLFRGLAALQYLYLQDNNLQALPDNTFRDLGNLTHLFLHGNRIPSVPEHAFRGLHSLDRLLLHQNHVARVHPHAFRDLGRLMTLYLFANNLSMLPAEVLVPLRSLQYLRLNDNPWVCDCRARPLWAWLQKFRGSSSGVPSNLPQRLAGRDLKRLATSDLEGCA
modifications: left off: a dimerising Fc or GST
notes: NgR and Fc of rat origin
With B1, the “deposition of immunoreactive Aβ into plaque” value in experiment [1] (right lateral ventricle, vs rat IgG, anti-Aβ immunohistochemistry) is reported as “significantly reduced”. Besides, in experiment [1] (right lateral ventricle, ELISA), the “decrease of total level of Aβ(1-40) in the brain” value is listed as 50% and the “decrease of total level of Aβ(1-42) in the brain” value amounted to 50%. Also, the “sAPPα levels in the brains” value in experiment [1] (immunoprecipitation and immunoblot) is recorded as “decreased”. The “binding of Aβ peptides” value with Aβ peptides was “bind”.

B2: AP-Aβ: fusion protein of alkaline phosphatase (AP) and the hydrophilic region of Aβ (amino acids 1-28) (protein)
chain: HHHHHHIIPVEEENPDFWNREAAEALGAAKKLQPAQTAAKNLIIFLGDGMGVSTVTAARILKGQKKDKLGPEIPLAMDRFPYVALSKTYNVDKHVPDSGATATAYLCGVKGNFQTIGLSAAARFNQCNTTRGNEVISVMNRAKKAGKSVGVVTTTRVQHASPAGTYAHTVNRNWYSDADVPASARQEGCQDIATQLISNMDIDVILGGGRKYMFRMGTPDPEYPDDYSQGGTRLDGKNLVQEWLAKRQGARYVWNRTELMQASLDPSVTHLMGLFEPGDMKYEIHRDSTLDPSLMEMTEAALRLLSRNPRGFFLFVEGGRIDHGHHESRAYRALTETIMFDDAIERAGQLTSEEDTLSLVTADHSHVFSFGGYPLRGSSIFGLAPGKARDRKAYTVLLYGNGPGYVLKDGARPDVTESESGSPEYRQQSAVPLDEETHAGEDVAVFARGPQAHLVHGVQEQTFIAHVMAFAACLEPYTACDLAPPAGTTDAAHPGDAEFRHDSGYEVHHQKLVFFAEDVGSNK
With B2, the “binding to NgR-expressing COS cells” value with NgR is “bound”.

B3: sNgR344-Fc: rat soluble NgR 344 Fc fusion (protein)
chain: CPGACVCYNEPKVTTSRPQQGLQAVPAGIPASSQRIFLHGNRISYVPAASFQSCRNLTILWLHSNALAGIDAAAFTGLTLLEQLDLSDNAQLRVVDPTTFRGLGHLHTLHLDRCGLQELGPGLFRGLAALQYLYLQDNNLQALPDNTFRDLGNLTHLFLHGNRIPSVPEHAFRGLHSLDRLLLHQNHVARVHPHAFRDLGRLMTLYLFANNLSMLPAEVLVPLRSLQYLRLNDNPWVCDCRARPLWAWLQKFRGSSSGVPSNLPQRLAGRDLKRLATSDLEGCAVASGPFRPFQTNQLTDEELLGLPKCCQPDAADKA
modifications: left off: a dimerising Fc or GST
notes: rat soluble NgR 344 Fc fusion
B3: the “binding of Aβ peptides” value with Aβ peptides is recorded as “bind”.
